# Test results from patent publication US20070237776A1 (Regeneron, published 2007).
# B1: VH1F9 (antibody, V domains shown)
# VH: QVQLVQSGAEVKKPGASVRVSCKASGYTFTSYDINWVRQATGQGLEYMGWMNPNSGNTGYAQKFQGRVSLTRDTSISTAYMDLNSLRSEDTAVYYCTTPGDKWNYEYFQFWGQGTLVTVSS
# VL: DIQMTQSPSSVSASVGDRVTITCRASQHISIWLAWYQQKPGKAPKLLILSASSLLSGVPSRFSGSGSGTDFALTVSSLQPEDFATYYCQQANSFPSFGPGTKVEIK
# notes: Hybridoma-derived chimeric IgG: human variable regions, mouse constant regions
# B2: VH1F9-18, mouse IgG1 (antibody, V domains shown)
# VH: QVQLVQSGAEVKKPGASVRVSCKASGYTFTSYDINWVRQATGQGLEYMGWMNPNSGNTGYAQKFQGRVSLTRDTSISTAYMDLNSLRSEDTAVYYCTTPGDKWNYEYFQFWGQGTLVTVSS
# VL: DIQMTQSPSSVSASVGDRVTITCRASQHISIWLAWYQQKPGKAPKLLILSASSLLSGVPSRFSGSGSGTDFALTVSSLQPEDFATYYCQQANSFPSFGPGTKVEIK
# notes: Chimeric: human variable, mouse IgG1 constant; from subclone hybridoma supernatant; subclone -18 of VH1F9
# B3: VH1F9-18, human IgG4 (antibody, V domains shown)
# VH: QVQLVQSGAEVKKPGASVRVSCKASGYTFTSYDINWVRQATGQGLEYMGWMNPNSGNTGYAQKFQGRVSLTRDTSISTAYMDLNSLRSEDTAVYYCTTPGDKWNYEYFQFWGQGTLVTVSS
# VL: DIQMTQSPSSVSASVGDRVTITCRASQHISIWLAWYQQKPGKAPKLLILSASSLLSGVPSRFSGSGSGTDFALTVSSLQPEDFATYYCQQANSFPSFGPGTKVEIK
# notes: Fully human IgG4 version from CHO conditioned medium
# How the values were obtained:
# [1] = target: T1, hIL-18Rα-hFc fusion protein (human, UniProt Q13478 19-329, limits assumed); assay: SPR (BIAcore), antibody from conditioned medium captured on anti-mouse IgG, hIL-18Rα-hFc in solution
# T1 construct: also called IL-18R1-hFc; not shown: human Fc
# T1 sequence: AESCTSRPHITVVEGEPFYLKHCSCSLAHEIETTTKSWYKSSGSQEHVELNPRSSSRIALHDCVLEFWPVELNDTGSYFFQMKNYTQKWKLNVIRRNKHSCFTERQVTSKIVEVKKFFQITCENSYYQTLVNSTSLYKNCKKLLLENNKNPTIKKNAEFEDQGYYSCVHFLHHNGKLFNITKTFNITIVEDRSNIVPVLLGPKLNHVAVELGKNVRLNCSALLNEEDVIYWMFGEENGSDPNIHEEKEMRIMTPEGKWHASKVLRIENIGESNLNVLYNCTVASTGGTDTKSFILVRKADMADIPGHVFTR
# Method: The KD of the antigen binding to the selected antibodies described above were determined by surface kinetics on a real-time biosensor surface plasmon resonance assay (BIAcore™). The antibody derived from hybridoma was captured on an anti-mouse IgG surface and exposed to various concentrations of hIL-18Rα-hFc fusion protein. Kinetic analysis using evaluation software was performed to obtain the association and dissociation rate constants.
# [2] = target: T2, human interleukin-18 receptor alpha (hIL-18Rα) on cells (human, UniProt Q13478 19-541); assay: cell-based or functional assay
# T2 sequence: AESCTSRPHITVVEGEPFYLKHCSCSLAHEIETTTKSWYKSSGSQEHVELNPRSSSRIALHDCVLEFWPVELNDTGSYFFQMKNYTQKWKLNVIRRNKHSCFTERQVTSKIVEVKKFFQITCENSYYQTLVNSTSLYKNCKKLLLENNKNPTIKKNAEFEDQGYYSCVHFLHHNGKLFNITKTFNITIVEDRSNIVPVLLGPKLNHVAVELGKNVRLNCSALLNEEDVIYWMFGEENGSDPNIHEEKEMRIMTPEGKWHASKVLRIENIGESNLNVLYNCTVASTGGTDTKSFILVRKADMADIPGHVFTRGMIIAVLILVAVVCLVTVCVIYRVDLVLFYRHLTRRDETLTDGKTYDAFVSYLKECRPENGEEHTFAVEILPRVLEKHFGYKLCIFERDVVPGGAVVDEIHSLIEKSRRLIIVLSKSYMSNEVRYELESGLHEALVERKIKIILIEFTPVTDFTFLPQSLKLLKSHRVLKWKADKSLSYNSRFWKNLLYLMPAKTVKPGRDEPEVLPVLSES
# [3] = target: T1, hIL-18Rα-hFc fusion protein; assay: ELISA solution affinity: antibody premixed with serial dilutions of hIL-18Rα-hFc, free antibody caught on hIL-18Rα-hFc-coated plate
# Method: Binding affinity of the antibodies to antigen were also measured using a immunoassay. Antibodies were characterize from hybridoma conditioned medium or as purified protein. Protein was purified after hybridoma cells were grown in low IgG medium and affinity purified using Protein G. IC₅₀ of antigen binding was determined with an ELISA-based assay. Briefly, constant amounts of antibody at different levels, either in hybridoma conditioned medium or purified, were premixed with serial dilutions of antigen protein, hIL-18Rα-hFc, ranging from 0 to 10 mg/ml, and incubated for two hours at room temperature to reach pseudo-binding equilibrium between the antibody and antigen. These solutions were then transferred to 96-well hIL-18Rα-hFc pre-coated plates (solid phase) to allow the free-antibody in the mixtures to bind to plate-coated hIL-18Rα-hFc. […] After washing off excess antibody in solution, the plate-bound antibodies were detected with an HRP-conjugated goat anti-mouse IgG polyclonal antibody reagent and developed using either colorimetric or chemiluminescent substrates. The dependency of the signals on the concentrations of antigen in solution was analyzed with a 4 parameter fit analysis using Prism™ software from Graph Pad™ and reported as IC₅₀ that render 50% reduction of antibody binding to plate-coated antigen.
# [4] = target: T3, monomeric receptor, hIL18Rα-hIL-18Rb-myc-myc-his (human, UniProt O95256 20-356, limits assumed); assay: SPR (BIAcore), mAb from subclone hybridoma supernatant captured on anti-mouse IgG, monomeric receptor 50-12.5 nM, 1:1 model
# T3 construct: Construct known only by its name; also called monomeric antigen; monomeric hIL-18Rα; not shown: myc-myc-his tag
# T3 sequence: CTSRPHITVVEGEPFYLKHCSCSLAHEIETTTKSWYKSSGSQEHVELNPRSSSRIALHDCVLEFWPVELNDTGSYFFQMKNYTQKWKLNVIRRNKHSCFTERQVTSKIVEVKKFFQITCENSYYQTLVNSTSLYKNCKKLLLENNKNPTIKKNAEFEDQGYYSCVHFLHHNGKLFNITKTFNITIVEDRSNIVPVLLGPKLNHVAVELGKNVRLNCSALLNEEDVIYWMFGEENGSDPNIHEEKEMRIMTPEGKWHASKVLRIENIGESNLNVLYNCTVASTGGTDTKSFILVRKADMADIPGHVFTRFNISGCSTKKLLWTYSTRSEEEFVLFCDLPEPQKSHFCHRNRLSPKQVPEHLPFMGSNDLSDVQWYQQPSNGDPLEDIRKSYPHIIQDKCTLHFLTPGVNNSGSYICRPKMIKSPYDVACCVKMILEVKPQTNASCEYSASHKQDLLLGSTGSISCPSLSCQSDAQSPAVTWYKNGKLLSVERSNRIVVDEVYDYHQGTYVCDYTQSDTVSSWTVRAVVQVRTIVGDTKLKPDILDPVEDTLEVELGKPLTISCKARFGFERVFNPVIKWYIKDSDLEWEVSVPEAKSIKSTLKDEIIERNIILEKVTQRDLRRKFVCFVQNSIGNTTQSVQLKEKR
# Method: (§1) Both mouse IgG1 and human IgG4 versions of the derived antibody were measured to determine KD for monomeric antigen using BIAcore™ (Table 2). Binding affinity of monomeric receptor was measured by capturing mAb from subclone hybridoma supernatant and CHO conditioned media over amine coupled anti-mouse IgG and anti-human IgG. […] Data were processed and analyzed using a 1:1 binding model and KD values were calculated.
# [5] = target: T3, monomeric receptor, …; assay: SPR (BIAcore), mAb from CHO conditioned medium captured on anti-human IgG, monomeric receptor 50-12.5 nM, 1:1 model
# Method: as §1
binder,measurement,setting,value
B1,Kd,[1],0.135 nM
same,KG-1 Bioassay (IC50 nM),[2],0.085 nM
same,Luciferase Bioassay (IC50 nM),[2],0.653 nM
same,IC50,[3],0.026 nM
B2,Kd,[4],6.81 nM
B3,Kd,[5],6 nM
